In patent US7449563B2, “Methods and compositions for destabilizing microtubules” (Academia Sinica, priority 2003, dated 2008):
One block for each molecule: values may come before it.

How the values were obtained:
[1] = test system: HeLa cells; test: Cell-based assay for CPAP activity: microtubule reassembly in cold-treated transfected HeLa cells; design: species or system human; conditions: transiently transfected HeLa cells
Experimental: Cell Culture and Transfection
(§1) HeLa cells were maintained in DMEM supplemented with 10% fetal bovine serum. cDNA clones encoding different portions of CPAP were subcloned, in an appropriate reading frame, into the CMV promoter-driven EGFP-C1 expression vector (Clontech, Palo Alto, Calif.). Transient transfections were performed using Lipofectamine 2000 (Invitrogen, Carlsbad, Calif.) according to the manufacturer's instructions.
Cold Treatment, Immunofluorescence and Confocal Microscopy
HeLa cells were grown on coverslips for at least 24 hr. Cold treatment was performed by incubating the cells at 4° C. for 1 hr, then replacing the cold medium with medium warmed to 30° C. and incubating the cells for 2 min at 30° C. The cells were then fixed with 1% formaldehyde for 30 min at room temperature.
The fixed cells were incubated in the presence of anti-α-tubulin monoclonal antibodies (N356, Amersham, Piscataway, N.J.) and anti-γ-tubulin polyclonal antibodies (Sigma, Saint Louis, Mo.). Bound anti-α-tubulin monoclonal antibodies (N356) were detected with Alexa 568, a Texas Red-conjugated goat anti-mouse IgG, or Alexa 647, a far-red fluorophore-conjugated goat anti-mouse IgG. Bound anti-γ-tubulin polyclonal antibodies were detected with Alexa 568 (Molecular Probes Inc.). The resulting […] signals were detected using a laser scanning confocal system (MRC 1000, Bio-Rad Laboratories, Hercules, Calif.).
The effect of various polypeptides derived from CPAP was determined by evaluating the amounts of mitotic spindle formation in the transfected cells. Decreased mitotic spindle formation indicated the presence of an activity that inhibited microtubule formation or destabilized microtubules.

[2] = test system: HeLa cells; test: Flow cytometric cell cycle analysis of transfected HeLa cells; assay type: cell-based, human; conditions: transiently transfected HeLa cells
Experimental: as §1
Transfected HeLa cells were harvested 48 hr following transfection. Both the adherent cells and non-adherent cells present in the culture supernatants were collected and subjected to centrifugation. The resulting cell pellets were resuspended in PBS then fixed in 1% formaldehyde at 4° C. for 30 min. Following fixation, the cells were collected by centrifugation, washed, and resuspended in 70% cold ethanol. The resuspended cells were either stored at −20° C. overnight or immediately used for FACS analysis.
FACS analysis was performed by collecting the fixed cells by centrifugation and resuspending the cells in DNA staining solution (100 μg/ml propidium iodide, 0.1% Triton X, and 100 μM EDTA in PBS) for 30 min at room temperature. Cell cycle analysis was performed on a FACS Calibur (Becton-Dickinson, Mountain View, Calif.) with the signal gated to measure only GFP fluorescence. Ten thousand events were acquired and the percentages of cells in G0/G1, S, and G2/M were determined using the ModfitLT software (version 2.0, Verity Software House, Inc., Topsham, Me.). The apparent accumulation of cells with two genome copies (i.e., twice the genetic material of G0/G1 cells) is indicative of cell cycle arrest after DNA synthesis but prior to mitosis.

[3] = biological target: T1, Bovine brain α/β tubulin (Bos taurus, UniProt P81947+Q6B856); test: In vitro microtubule sedimentation assay; assay type: biochemical; conditions: 15 μM tubulin; 40 μM polypeptide
T1 construct: Bovine brain α/β tubulin (15 μM; Cytoskeleton Inc., Denver, Colo.); purchased Cytoskeleton Inc., Denver, Colo; host or cells: bovine brain (tissue-purified)
T1 sequence (P81947 whole entry): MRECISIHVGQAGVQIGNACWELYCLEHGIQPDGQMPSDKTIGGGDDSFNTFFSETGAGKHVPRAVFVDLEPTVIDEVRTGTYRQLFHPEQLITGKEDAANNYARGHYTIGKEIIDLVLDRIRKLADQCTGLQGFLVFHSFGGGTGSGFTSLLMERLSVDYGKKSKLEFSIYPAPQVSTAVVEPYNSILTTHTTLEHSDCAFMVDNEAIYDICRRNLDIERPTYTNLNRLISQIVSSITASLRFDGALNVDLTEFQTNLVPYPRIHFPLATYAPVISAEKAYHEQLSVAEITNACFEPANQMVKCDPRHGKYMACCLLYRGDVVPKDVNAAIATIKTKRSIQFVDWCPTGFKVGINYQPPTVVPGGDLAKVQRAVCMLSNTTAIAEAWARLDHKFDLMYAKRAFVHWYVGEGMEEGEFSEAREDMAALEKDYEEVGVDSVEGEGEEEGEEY
T1 sequence (Q6B856 whole entry): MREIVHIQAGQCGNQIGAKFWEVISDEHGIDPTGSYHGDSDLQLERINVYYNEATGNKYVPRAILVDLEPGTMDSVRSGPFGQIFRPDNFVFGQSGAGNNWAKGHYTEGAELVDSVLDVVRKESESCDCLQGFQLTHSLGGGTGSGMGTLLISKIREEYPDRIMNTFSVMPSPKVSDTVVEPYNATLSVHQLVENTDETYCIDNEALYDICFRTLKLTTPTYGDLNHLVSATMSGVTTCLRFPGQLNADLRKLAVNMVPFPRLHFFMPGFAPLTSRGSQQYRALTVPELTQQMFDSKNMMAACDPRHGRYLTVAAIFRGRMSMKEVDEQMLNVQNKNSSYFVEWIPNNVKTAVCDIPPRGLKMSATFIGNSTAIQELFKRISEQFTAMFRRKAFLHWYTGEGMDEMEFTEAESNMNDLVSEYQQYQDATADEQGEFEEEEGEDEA
Experimental: In vitro Microtubule Sedimentation Assay
Bovine brain α/β tubulin (15 μM; Cytoskeleton Inc., Denver, Colo.) was pre-incubated with various amounts of truncated GST-CPAP proteins in a 50 μl reaction mixture comprising RG1 buffer (see Example 2) for 30 min at 37° C. Tubulin polymerization was initiated by adding 50 μl GMRG buffer (RG1 buffer supplemented with 12 mM MgCl2 and 50% glycerol), then incubating the reaction mixtures at 37° C. for 1.5 hr.
The reaction mixtures were then subjected to centrifugation at 300,000×g for 15 min at 37° C., in a TL-100 ultracentrifuge (Beckman Instruments, Fullerton, Calif.). Supernatants (S) and pellets (P) were analyzed by SDS-PAGE followed by staining with Coomassie blue.
Microtubule disassembly was confirmed using the microtubule sedimentation assay. Following centrifugation of the reaction mixtures, relatively soluble tubulin monomers and small multimers are found in the supernatant, while relatively insoluble polymerized tubulin is found in the pellet. To assay the ability of PN2-3-containing polypeptides to destabilize microtubules, reactions comprising 15 μM tubulin were incubated in the presence of increasing amounts of GST-PN2-3 (1.9, 3.8, 7.5, and 15 μM) or GST-PN2-2 (15, 30, or 40 μM), or in the absence of CPAP-derived polypeptides (control; FIG. 4A).

[4] = biological target: T2, polymerized microtubules (bovine brain tubulin) (Bos taurus, UniProt P81947+Q6B856); test: Microtubule depolymerization assay (centrosomes omitted); assay type: biochemical; conditions: centrosomes absent; nocodazole 15 μM as positive control; data not shown
T2 construct: containing 125 μg bovine brain tubulin (Cytoskeleton, Denver, Colo.); purchased Cytoskeleton, Denver, Colo; host or cells: bovine brain (tissue-purified)
T2 sequence (P81947 whole entry): as the sequence (P81947 whole entry) above
T2 sequence (Q6B856 whole entry): as the sequence (Q6B856 whole entry) above
Experimental: Microtubule Depolymerization Assay
In this assay, centrosomes are omitted from the above reaction mixtures to determine the effects of various truncated GST-CPAP proteins or synthetic peptides on microtubule polymerization in the absence of centrosomes. Polymerized microtubules were stained using FITC-conjugated anti-α-tubulin monoclonal antibodies, as above. Nocodazole (15 μM) was added to some reactions mixtures as a positive control for microtubule depolymerization.

B1: GFP-PN2-3: GFP-tagged CPAP residues 311-422, expressed from a transfected vector (protein, UniProt Q9HC77 311-422, looked up, fragment)
chain: QKHDDSSEVANIEERPIKAAIGERKQTFEDYLEEQIQLEEQELKQKQLKEAEGPLPIKAKPKQPFLKRGEGLARFTNAKSKFQKGKESKLVTNQSTSEDQPLFKMDRQQLQR
modifications: GFP tag
notes: GFP-tagged CPAP residues 311-422, expressed from a transfected vector
Inhibition of microtubule reassembly in cold-treated mitotic cells (in words) [1]: significantly inhibited microtubule reassembly
Cell cycle distribution by DNA content (in words) ([2]; propidium iodide, GFP-gated): progressive accumulation in G2/M
Cell morphology (in words) ([2]; data not shown): change in morphology (to round cells)
Cell proliferation (in words) ([2]; data not shown): stopped proliferating

Distribution of tubulin in the supernatant and pellet (in words) [3]: little effect
Disassembly of polymerized microtubules in the absence of centrosomes (in words) [4]: no such effect
B2: GST-PN2-2: GST fusion polypeptide with sub-region PN2-2 of PN2 (CPAP residues 191-310 per b157) (protein)
chain: LSLLPDDQSQKHRSPGNTTTGERATCCFPSYVYPDPTQEETYPSNILSHEQSNFCRTAHGDFVLTSKRASPNLFSEAQYQEAPVEKNNLKEENRNHPTGESILCWEKVTEQIQEANDKNL
modifications: left off: a dimerising Fc or GST
